The target of assay [1] is Cys-HA_(Anchorless) peptide, unlabelled (influenza virus). Kind of assay: SPR. A general note: In SPR one partner is held on a chip, and binding of the other changes the refractive index at the surface.
Assay [2] addresses fluorescein-labelled HA_(Anchorless) peptide (influenza virus). Kind of assay: dissociation kinetics of fluorescent peptide-MHC complexes.
Assay [3] deals with influenza virus hemagglutinin peptide HA_(305–318), unlabelled (influenza virus). The assay is described as follows: SPR.

Consider two substances from paper PMC2213500 (The Journal of Experimental Medicine, 2000).

On to “soluble mutant HLA-DR1 with β86 glycine changed to tyrosine (from UniProt P01903) (complex)”, for which, in assay [1], the dissociation rate in the presence of DM worked out at 8.5e-05 s⁻¹, the rate of binding to the peptide surface in the absence of DM came out at 0.119 s⁻¹, the t1/2 in the presence of DM came to 2.25 h and the t1/2 of dissociation was 3.4 h. Moreover, the t1/2 of dissociation in assay [2] was 1.8 h.

For “soluble wild-type HLA-DR1 (empty, no added peptide) (from UniProt P01903) (complex)”, in assay [3], the dissociation rate in the presence of DM was 5.6e-07 s⁻¹ and the t1/2 in the presence of DM was determined as 344 h. In assay [1], the dissociation rate in the presence of DM stood at 0.0038 s⁻¹, the rate of binding to the peptide surface in the absence of DM is 0.035 s⁻¹ and the t1/2 in the presence of DM came to 0.05 h. Moreover, in assay [2], the t1/2 of dissociation turned out to be 1.8 h.
